{
  "source": "patent US20110130348",
  "proteins": {"B1": {"name": "Escherichia coli lipoic acid ligase (Lp1A) (protein)", "chain": "MSTLRLLISDSYDPWFNLAVEECIFRQMPATQRVLFLWRNADTVVIGRAQNPWKECNTRRMEEDNVRLARRSSGGGAVFHDLGNTCFTFMAGKPEYDKTISTSIVLNALNALGVSAEASGRNDLVVKTVEGDRKVSGSAYRETKDRGFHHGTLLLNADLSRLANYLNPDKKKLAAKGITSVRSRVTNLTELLPGITHEQVCEAITEAFFAHYGERVEAEIISPNKTPDLPNFAETFARQSSWEWNFGQAPAFSHLLDERFTWGGVELHFDVEKGHITRAQVFTDSLNPAPLEALAGRLQGCLYRADMLQQECEALLVDFPEQEKELRELSAWMAGAVR"}},
  "key": {"[1]": {"biological_target": "HP1 with LAP2 fused to its C-terminus (LAP2-C)"}, "[2]": {"biological_target": "T1, synthetic LAP2 peptide (Lp1A acceptor peptide 2)", "T1 chain": "GFEIDKVWYDLDA"}, "[3]": {"biological_target": "T2, LAP1 (rationally designed Lp1A acceptor peptide)", "T2 chain": "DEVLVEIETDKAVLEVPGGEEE"}, "[4]": {"biological_target": "LAP2-HP1 fusion protein (LAP2 at the N-terminus of HP1)"}},
  "data": [
    {"protein": "B1", "values": [
      {"measurement": "percent conversion to lipoylated product (HPLC, 50 nM Lp1A, 1 h)", "setting": "[1]", "result": "When fused to the C- rather than N-terminus of HP1, the activity of LAP2 decreased somewhat, but was still higher than all other LAP sequences at the N-terminus"},
      {"measurement": "Km of Lp1A-catalyzed lipoylation (HPLC, Michaelis-Menten)", "setting": "[2]", "result": "13.32 ± 1.78", "unit": "µM"},
      {"measurement": "catalytic efficiency (kcat/Km) for lipoic acid ligation", "setting": "[2]", "result": "The catalytic efficiency (kcat/Km) 0.99 µM^-1 min^-1)"},
      {"measurement": "kcat of Lp1A-catalyzed lipoylation (HPLC, Michaelis-Menten)", "setting": "[2]", "result": "0.22 ± 0.01", "unit": "s⁻¹"},
      {"measurement": "Km (estimate from HPLC measurements)", "setting": "[3]", "result": "the Km for LAP1 is estimated to be >200 µM"},
      {"measurement": "percent conversion to lipoylated product (HPLC, 50 nM Lp1A, 1 h)", "setting": "[4]", "result": "As in the cellular assays, LAP2 is the best sequence"}
    ]}
  ]
}
